From doi:10.1101/2020.06.22.20137695

What was measured:
[1] = molecular target: MERS-CoV spike protein, recombinant soluble ectodomain trimer (MERS-CoV) (UniProt K9N5Q8); assay: SEC
[2] = molecular target: SARS-CoV spike protein, recombinant soluble ectodomain trimer (SARS-CoV) (UniProt P59594); assay: SEC

| Substance | stoichiometry N [1] | stoichiometry N [2] |
| --- | --- | --- |
| MERS-CoV spike protein, recombinant soluble ectodomain trimer (from UniProt K9N5Q8 18-1296) (domain or fragment) | 3 | – |
| SARS-CoV spike protein, recombinant soluble ectodomain trimer (from UniProt P59594 14-1195) (domain or fragment) | – | 3 |
